The values below are quoted from earlier work in publication PMC5501900.

pKd: −log10 of the molar value.

For this data set, the target named is Vinculin tail tail (Homo sapiens) (UniProt P18206).

Take “Vinculin head head (from UniProt P18206)”: the pKd is > 9.00.
